In patent publication US20180117114A1, “PEPTIDES THAT MODULATE THE EFFECT OF THE CRMP: NEUROFIBROMIN COMPLEX ON SYNAPTIC TRANSMISSION” (Indiana University Research and Technology Coporation, priority 2015, published 2018):

Legend:
Experiment in all cases: cell-based or functional assay
[1] = biological target: CaV2.2 expressed in human embryonic kidney 293 (HEK293) cells
[2] = biological target: CaV2.2 in transfected neurons
[3] = biological target: CaV2.2 in dorsal root ganglion neurons from Nf1+/- mice (mouse) (UniProt O55017)
CaV2.2 in dorsal root ganglion neurons from Nf1+/- mice (mouse), sequence (O55017 whole entry): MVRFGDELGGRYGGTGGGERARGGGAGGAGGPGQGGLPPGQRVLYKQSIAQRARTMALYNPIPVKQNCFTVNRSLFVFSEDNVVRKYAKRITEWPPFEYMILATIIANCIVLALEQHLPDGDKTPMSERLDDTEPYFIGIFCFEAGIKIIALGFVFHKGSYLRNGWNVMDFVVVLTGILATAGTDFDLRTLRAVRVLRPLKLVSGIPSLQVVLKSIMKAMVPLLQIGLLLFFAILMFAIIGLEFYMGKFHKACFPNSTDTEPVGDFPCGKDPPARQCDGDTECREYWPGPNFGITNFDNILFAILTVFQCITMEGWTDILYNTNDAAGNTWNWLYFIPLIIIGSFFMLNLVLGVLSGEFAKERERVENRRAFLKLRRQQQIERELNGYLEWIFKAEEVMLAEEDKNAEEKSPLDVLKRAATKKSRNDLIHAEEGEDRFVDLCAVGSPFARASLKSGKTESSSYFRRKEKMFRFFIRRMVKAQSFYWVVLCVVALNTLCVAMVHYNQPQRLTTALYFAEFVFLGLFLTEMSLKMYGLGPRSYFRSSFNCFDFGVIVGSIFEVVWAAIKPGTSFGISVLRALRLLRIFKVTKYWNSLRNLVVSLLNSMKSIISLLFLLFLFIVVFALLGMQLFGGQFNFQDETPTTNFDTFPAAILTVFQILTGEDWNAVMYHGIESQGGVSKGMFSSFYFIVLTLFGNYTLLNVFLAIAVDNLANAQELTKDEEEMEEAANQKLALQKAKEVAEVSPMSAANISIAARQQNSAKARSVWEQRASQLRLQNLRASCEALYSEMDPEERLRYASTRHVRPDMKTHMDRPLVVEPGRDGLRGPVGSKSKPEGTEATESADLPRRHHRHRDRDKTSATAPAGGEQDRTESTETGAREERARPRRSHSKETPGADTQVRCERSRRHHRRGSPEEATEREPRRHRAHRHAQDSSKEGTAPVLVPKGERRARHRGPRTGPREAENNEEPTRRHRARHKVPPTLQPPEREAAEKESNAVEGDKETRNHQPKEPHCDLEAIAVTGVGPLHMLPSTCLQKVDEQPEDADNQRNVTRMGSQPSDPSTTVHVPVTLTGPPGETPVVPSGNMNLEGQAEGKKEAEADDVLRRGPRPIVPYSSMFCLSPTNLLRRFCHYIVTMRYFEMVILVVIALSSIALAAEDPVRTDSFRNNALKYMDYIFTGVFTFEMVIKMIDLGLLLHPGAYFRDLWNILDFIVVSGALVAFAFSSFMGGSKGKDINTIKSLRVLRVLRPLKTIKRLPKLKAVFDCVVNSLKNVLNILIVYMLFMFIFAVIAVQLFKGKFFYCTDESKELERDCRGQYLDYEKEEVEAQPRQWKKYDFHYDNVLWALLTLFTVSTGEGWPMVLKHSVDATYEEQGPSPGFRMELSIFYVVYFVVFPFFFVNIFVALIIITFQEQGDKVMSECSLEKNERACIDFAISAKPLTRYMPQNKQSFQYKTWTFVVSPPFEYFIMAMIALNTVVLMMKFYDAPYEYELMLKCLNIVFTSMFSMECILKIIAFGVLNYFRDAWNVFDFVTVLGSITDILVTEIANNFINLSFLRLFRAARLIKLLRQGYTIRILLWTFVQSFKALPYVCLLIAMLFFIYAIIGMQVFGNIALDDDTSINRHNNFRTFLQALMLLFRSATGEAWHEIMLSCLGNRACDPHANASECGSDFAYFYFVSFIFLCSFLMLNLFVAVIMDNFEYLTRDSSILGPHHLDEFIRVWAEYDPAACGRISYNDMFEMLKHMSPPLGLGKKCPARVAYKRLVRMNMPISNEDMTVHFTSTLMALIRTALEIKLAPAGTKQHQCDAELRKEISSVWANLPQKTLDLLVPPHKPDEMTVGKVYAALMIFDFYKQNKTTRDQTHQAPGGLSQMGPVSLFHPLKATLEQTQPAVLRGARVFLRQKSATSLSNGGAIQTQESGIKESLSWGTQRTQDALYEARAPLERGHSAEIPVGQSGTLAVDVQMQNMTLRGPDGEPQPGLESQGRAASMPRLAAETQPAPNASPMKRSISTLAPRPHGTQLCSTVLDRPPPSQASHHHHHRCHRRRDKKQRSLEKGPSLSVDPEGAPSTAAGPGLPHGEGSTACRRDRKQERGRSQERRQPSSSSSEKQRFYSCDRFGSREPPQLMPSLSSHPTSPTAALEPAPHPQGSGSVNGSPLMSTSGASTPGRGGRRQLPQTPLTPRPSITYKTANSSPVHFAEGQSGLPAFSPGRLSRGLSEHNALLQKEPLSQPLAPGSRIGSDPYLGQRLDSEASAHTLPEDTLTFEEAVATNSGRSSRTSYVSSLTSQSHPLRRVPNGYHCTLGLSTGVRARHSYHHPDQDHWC

| cells exhibiting CaV2.2 staining on the surface [1] [%] | reduction of peak Ca^2+ current density compared to CRMP-2 neurons (whole-cell voltage clamp) [2] [%] | Substance | reduction in KCl-stimulated CGRP release compared with TAT-control (10 µM TAT-CBD3) [3] [%] |
| --- | --- | --- | --- |
| 10 | 64 | CBD3 peptide fused to enhanced green fluorescent protein (EGFP) | – |
| – | – | TAT-CBD3 (peptide) | 85 |
